{
  "source": "patent US20220315908A1",
  "about": "“NOVEL GARDNERELLA ENDOLYSINS AND USES THEREOF” (priority 2019, published 2022)",
  "molecules": {"B1": {"name": "H3B3: natural Gardnerella prophage endolysin from strain Gv18-4 (protein)", "chain": "MSKKGIDVSVWQGDIDFNSVKASGVEFVIIRAGYGIGHKDKWFEENYRKAKTAGLDVGSYWYSYASSAGEASEEAQSCVNILSGKSFEYPIYFDLEEKSQLNRGRDFCDSLITSFCNKLEACGYYAGFYTSLSVANNLVSSHVRDRYALWIAQWNTHCSYQGSYGLWQYSSSGSVNGIAGRVDMDYAYVDYPSVIKNAGLNGYQNGGSYTAPQTSSIDEVAREVINGDWGNGNDRKNRLISAGYDYASVQNKVNELLGVKAYRKSVDELAREVIRGTWGNGSMRKHRLTQAGYDYDAVQKRVNELL", "modifications": "EL3_strain_Gv18-4"}, "B2": {"name": "H1B1: natural Gardnerella prophage endolysin from strain HMP9231 (protein)", "chain": "MSKKGIDVSEWQGDIDFNAVKASGVEFVIIRAGYGIGCKDKWFEQNYRKAKTAGLDVGAYWYSYANSGFEAAEEAQSLMNMLSGKSFEYPVYFDLEEKSQLNRGRAFCDSLITSFCNKLEACGYYAGFYTSLSTANNLVSAHVRNRYALWIAQWNTHCNYQGSYGLWQYSSNGSVPGVAGRVDMDYAYVDYPSIIKNAGLNGCKNGGSDQAARTSSIDEVAREVINGAWGNGSTRKQRLTSAGYDYASVQNKVNELLGVKACRKSVDELAREVIRGAWGNGSTRKQRLAQAGYDYDTVQKRVNELL", "modifications": "EL1_strain_HMP9231", "notes": "natural Gardnerella prophage endolysin from strain HMP9231"}, "B3": {"name": "H2B2: natural Gardnerella prophage endolysin from strain Gv18-4 (protein)", "chain": "MSKRGIDVSEWQGDIDFNAVKASGVEFVIIRAGYGIGCKDKWFEQNYRKAKTCGLDVGAYWYSYANSGFEAAEEAQSCVNMLSGKSFEYPVYFDLEEKSQLNRGRAFCDSLITGFCNKLESCGYYAGFYTSLSTANNLVSAHVRNRYALWIAQWNTHCSYQGSYGLWQYSSSGSVPGVAGRVDMDYAYVDYPSIIKNVGLNGCKNGGSDQAARTSSIDEVAREVINGAWGNGNERKQRLTSAGYDYASVQNKVNELLGVKACRKSVDEIAREVIRGTWGNGSTRKQRLTQAGYDYDTVQKRVNELL", "modifications": "EL2_strain_Gv18-4"}},
  "data": [
    {"test_system": "G. vaginalis sensu stricto strain Gv_9", "test": "Quantitative reduction in viable CFU assay in bacterial suspension", "format": "cell-based, Gardnerella vaginalis sensu stricto", "conditions": "Gv_9; 5 hours, pH 5.0, anaerobic; 10 ul endolysin (0.2 mg/ml where possible) + 90 ul 5e7 CFU/ml; average of triplicate", "protocol": "The lysis activity on the four main species of Gardnerella of 91 constructs (natural and domain-swapped endolysins) was quantitatively assessed using the method described in Reference Example 2. […]\n(§1) The results are shown in FIGS. 8A to 8D together with Tables 5A to 5C. In FIGS. 8A to 8D, the logarithmic Y axis depicts the count of surviving cells. The dotted line indicates the limit of detection (LOD) given by plating of 2 ul of the reaction mix (500 CFU/ml). Each combination of the natural 10 H-domains and the natural 9 B-regions was assessed, including the natural endolysins (H1B1, H2B2, H3B3, etc.), plus H6B6. […] The activity of each construct was measured on each of the 4 main Gardnerella species G. vaginalis sensu stricto, G. leopoldii, G. piotii, and G. swidsinkii. All conditions have been measured in triplicate. The survival after 5 hours incubation at pH 5.0 under anaerobic conditions with endolysins vs. buffer was measured by quantitative plating. The values indicate the log 10 of the ratio of surviving CFU for treated vs. untreated cells. The average of the triplicate measurements is used. In tables 5A and 5B, high negative log 10 values, e.g. −6.7, −5.5, −4.8 etc. are associated with high enzymatic activity, while log 10 values closer to zero or even positive log 10 values are associated with low or no enzymatic activity. […] Inversely, a reduction value of −3.7 means a 10^3.7-fold (=5012-fold) reduction of viable CFU in treated sample vs. untreated control.\n(§2) Gardnerella cells were recovered from cryo stock by plating on Chocolate Agar plates (Beckton Dickinson) and incubating for 48 h at 37° C. under anaerobic conditions. For Lactobacilli, BD Schaedler/5% sheep blood agar plates were used instead. Colonies were scraped from the plate, resuspended in Hardy Broth or NYC-III-HS-5.0 at the pH as indicated, and the suspension adjusted to OD (610 or 620 nm as indicated) 0.1. It has to be noted that two Tecan Microplate readers, having respectively a 610 nm or 620 nm filter, have been used interchangeably in the experiments. Although it doesn't make any difference for the experiments, the exact wavelength used is specified in each example. If not stated otherwise, 90 μl cell suspension was mixed with 10 μl endolysin solution, for the different species/endolysin combinations, in 384-well plates. OD(610-620 nm as indicated) was measured at the beginning of the reaction and at the end, either as two measurement points or as a continuous kinetic in a Tecan F200 Microplate reader. The reactions were incubated for 5 hours (or otherwise the time indicated) at 37° C. under anaerobic, micro-aerophilic or aerobic conditions as indicated. Anaerobic conditions intend that oxygen was fully depleted from the container in which the bacteria are incubated (Sigma-Aldrich anaerobic jar or sealable lunch box) with an anaerobic sachet, and the lack of oxygen was confirmed with an anaerobic indicator inside the container. Where micro-aerophilic conditions are indicated, the candle-in-a-jar method was used (tea candle lit in an appropriate sealable container, which reduces oxygen levels until the flame dies out). Then each well was diluted in 5 steps (10^−1 to 10^−5) using 96-U-well bottom plates, and 2 μl of each dilution of each reaction mix are plated on BD Chocolate agar plates or BD Schaedler/5% sheep blood agar plates for Gardnerella and Lactobacilli, respectively, for detecting and quantifying surviving CFU. Detection plates were incubated at 37° C. for 48 hours under anaerobic conditions.", "units": {"log 10 of the ratio of surviving CFU for treated vs. untreated cells": "log 10"}, "values": [
      {"molecule": "B1", "log 10 of the ratio of surviving CFU for treated vs. untreated cells": "−3.0"},
      {"molecule": "B2", "log 10 of the ratio of surviving CFU for treated vs. untreated cells": "−1.9"},
      {"molecule": "B3", "log 10 of the ratio of surviving CFU for treated vs. untreated cells": "−1.2"}
    ]},
    {"test_system": "G. leopoldii strain Gv_11", "test": "Quantitative reduction in viable CFU assay in bacterial suspension", "format": "cell-based, Gardnerella leopoldii", "conditions": "5 hours, pH 5.0, anaerobic, 10 ul endolysin (0.2 mg/ml where possible) + 90 ul 5e7 CFU/ml, average of triplicate", "protocol": "(§3) The lysis activity on the four main species of Gardnerella of 91 constructs (natural and domain-swapped endolysins) was quantitatively assessed using the method described in Reference Example 2. Briefly, 90 ul 5e7 CFU/ml of the indicated strain were incubated for 5 hours at pH 5.0 under anaerobic conditions with 10 ul endolysin (concentration adjusted to 0.2 mg/ml where possible, see Table 4).\nas §1, §2", "units": {"log 10 of the ratio of surviving CFU for treated vs. untreated cells": "log 10"}, "values": [
      {"molecule": "B1", "log 10 of the ratio of surviving CFU for treated vs. untreated cells": "−2.0"},
      {"molecule": "B2", "log 10 of the ratio of surviving CFU for treated vs. untreated cells": "−1.3"},
      {"molecule": "B3", "log 10 of the ratio of surviving CFU for treated vs. untreated cells": "−1.1"}
    ]},
    {"test_system": "G. piotii strain Gv_17", "test": "Quantitative reduction in viable CFU assay in bacterial suspension", "format": "cell-based, Gardnerella piotii", "conditions": "5 hours, pH 5.0, anaerobic, 10 ul endolysin (0.2 mg/ml where possible) + 90 ul 5e7 CFU/ml, average of triplicate", "protocol": "as §3, §1, §2", "units": {"log 10 of the ratio of surviving CFU for treated vs. untreated cells": "log 10"}, "values": [
      {"molecule": "B1", "log 10 of the ratio of surviving CFU for treated vs. untreated cells": "−1.5"},
      {"molecule": "B2", "log 10 of the ratio of surviving CFU for treated vs. untreated cells": "−0.9"},
      {"molecule": "B3", "log 10 of the ratio of surviving CFU for treated vs. untreated cells": "−2.5"}
    ]},
    {"test_system": "G. swidsinskii strain Gv_23", "test": "Quantitative reduction in viable CFU assay in bacterial suspension", "format": "cell-based, Gardnerella swidsinskii", "conditions": "5 hours, pH 5.0, anaerobic, 10 ul endolysin (0.2 mg/ml where possible) + 90 ul 5e7 CFU/ml, average of triplicate", "protocol": "as §3, §1, §2", "units": {"log 10 of the ratio of surviving CFU for treated vs. untreated cells": "log 10"}, "values": [
      {"molecule": "B1", "log 10 of the ratio of surviving CFU for treated vs. untreated cells": "−5.4"},
      {"molecule": "B2", "log 10 of the ratio of surviving CFU for treated vs. untreated cells": "−3.5"},
      {"molecule": "B3", "log 10 of the ratio of surviving CFU for treated vs. untreated cells": "−5.4"}
    ]},
    {"test_system": "four Gardnerella strains (Gv_9, Gv_11, Gv_17, Gv_23)", "test": "CFU reduction averaged across the four Gardnerella strains, with activity ranks", "format": "cell-based", "conditions": "pH 5.0, 5 hours, anaerobic", "protocol": "as §3, §1\nas §2, with “out).” for “out). Then each well was diluted in 5 steps (10^−1 to 10^−5) using 96-U-well bottom plates, and 2 μl of each dilution of each reaction mix are plated on BD Chocolate agar plates or BD Schaedler/5% sheep blood agar plates for Gardnerella and Lactobacilli, respectively, for detecting and quantifying surviving CFU. Detection plates were incubated at 37° C. for 48 hours under anaerobic conditions.”", "units": {"average of the log 10 activities of each construct across the four Gardnerella strains": "log 10"}, "values": [
      {"molecule": "B1", "average of the log 10 activities of each construct across the four Gardnerella strains": "−3.0"},
      {"molecule": "B2", "average of the log 10 activities of each construct across the four Gardnerella strains": "−1.9"},
      {"molecule": "B3", "average of the log 10 activities of each construct across the four Gardnerella strains": "−2.6"}
    ]},
    {"test_system": "four Gardnerella strains (Gv_9, Gv_11, Gv_17, Gv_23)", "test": "CFU reduction averaged across the four Gardnerella strains, with activity ranks", "format": "cell-based", "conditions": "rank 1-91, based on the data of Table 5B", "protocol": "as §3, §1\nas §2, with “out).” for “out). Then each well was diluted in 5 steps (10^−1 to 10^−5) using 96-U-well bottom plates, and 2 μl of each dilution of each reaction mix are plated on BD Chocolate agar plates or BD Schaedler/5% sheep blood agar plates for Gardnerella and Lactobacilli, respectively, for detecting and quantifying surviving CFU. Detection plates were incubated at 37° C. for 48 hours under anaerobic conditions.”", "values": [
      {"molecule": "B1", "activity rank of all endolysins": 13},
      {"molecule": "B2", "activity rank of all endolysins": 44},
      {"molecule": "B3", "activity rank of all endolysins": 25}
    ]}
  ]
}
